System: rabbit small clot embolic stroke model (RSCEM)
Experiment: Rabbit small clot embolic stroke model (RSCEM), quantal dose-response analysis of behavior
Format: in vivo, Male New Zealand white rabbits
Settings: for group P50: Mean±SEM
Text: Methods: This model uses rabbits and is known as RSCEM. Male New Zealand white rabbits were anesthetized using isoflurane (5% induction, 2% maintenance by facemask), the bifurcation of the right carotid artery was exposed and the external carotid was ligated just distal to the bifurcation, where a catheter was inserted into the common carotid and secured with ligatures. The incision was closed around the catheter with the distal ends left accessible outside the neck; the catheter was filled with heparinized saline and plugged with an injection cap. Rabbits were allowed to recover from anesthesia for a minimum of 2 h until they behaved normally. After that time, microdots were prepared from blood drawn from a donor rabbit and allowed to clot at 37° C., as described in detail previously. Microclots were re-suspended in PBS, then washed and allowed to settle, followed by aspiration of the supernatant and spiking of the microclots with tracer quantities of 15-μm radiolabeled microspheres. The specific activity of the particles was determined by removing an aliquot, after which appropriate volumes of PBS solution were added so that a predetermined weight of clot particles were rapidly injected through the catheter and both the syringe and catheter were flushed with 5 ml of normal saline.
Quantal Dose-Response Analysis: For behavioral analysis, a quantal dose-response data analysis technique was used as described previously. A wide range of lesion volumes is induced to generate both normal and abnormal animals with various behavioral deficits. […] Briefly, to evaluate the quantitative relationship between numbers of clots in the brain and neurological deficits (coma or death), logistic (S-shaped) curves are fitted by computer to the quantal dose-response data (see FIGS. 1 and 2).
These parameters are measures of the amount of microclots (in mg) that produce neurologic dysfunction in 50% of a group of animals (P50). The P50 values are then calculated as described previously and are presented as Mean±SEM. […] The data were analyzed using the t-test. […]

B1: tPA: Tissue plasminogen activator, a protein thrombolytic agent (clot-busting drug); Genentech lots (protein, UniProt P00750 36-562, looked up)
Tissue-type plasminogen …: SYQVICRDEKTQMIYQQHQSWLRPVLRSNRVEYCWCNSGRAQCHSVPVKSCSEPRCFNGGTCQQALYFSDFVCQCPEGFAGKCCEIDTRATCYEDQGISYRGTWSTAESGAECTNWNSSALAQKPYSGRRPDAIRLGLGNHNYCRNPDRDSKPWCYVFKAGKYSSEFCSTPACSEGNSDCYFGNGSAYRGTHSLTESGASCLPWNSMILIGKVYTAQNPSAQALGLGKHNYCRNPDGDAKPWCHVLKNRRLTWEYCDVPSCSTCGLRQYSQPQFRIKGGLFADIASHPWQAAIFAKHRRSPGERFLCGGILISSCWILSAAHCFQERFPPHHLTVILGRTYRVVPGEEEQKFEVEKYIVHKEFDDDTYDNDIALLQLKSDSSRCAQESSVVRTVCLPPADLQLPDWTECELSGYGKHEALSPFYSERLKEAHVRLYPSSRCTSQHLLNRTVTDNMLCAGDTRSGGPQANLHDACQGDSGGPLVCLNDGRMTLVGIISWGLGCGQKDVPGVYTKVTNYLDWIRDNMRP
With B1 the “group P50” value (tPA 3.3 mg/kg IV given 1 hour following embolization) was 2.48 ± 0.17 mg, the “group P50” value (tPA 3.3 mg/kg IV given 3 hours following embolization) was 1.00 ± 0.56 mg and the “effect on behavior / P50 value (in words)” value (tPA given 3 hours following embolization) was “ineffective”.

— patent publication US11147859B2, “Diffusion enhancing compounds and their use alone or with thrombolytics” (Diffusion Pharmaceuticals LLC, priority 2009, dated 2021)
